Article PMC10361598 (Science Advances, 2023)
Read-outs that look alike come from different tables or passages of the source.

Legend:
[1] = target: T1, CXCL12 (UniProt P48061 22-93); test: graphene field-effect transistor array
[2] = target: T1, CXCL12; test: graphene field-effect transistor array; remark: listed apart in the source

T1 sequence (P48061 22-93): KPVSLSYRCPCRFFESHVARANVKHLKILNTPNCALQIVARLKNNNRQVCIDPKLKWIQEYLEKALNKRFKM

B1: CXCR4^QTY-Fc (Fc fusion)
chain: PSTCSKPTCPPPELLGGPSVFIFPPKPKDTLMISRTPEVTCVVVDVSQDDPEVQFTWYINNEQVRTARPPLREQQFNSTIRVVSTLPITHQDWLRGKEFKCKVHNKALPAPIEKTISKARGQPLEPKVYTMGPPREELSSRSVSLTCMINGFYPSDISVEWEKNGKAEDNYKTTPAVLDSDGSYFLYNKLSVPTSEWQRGDVFTCSVMHEALHNHYTQKSISRSPGK
modifications: RED-NHS fluorescent label (Monolith NT Protein Labeling Kit RED-NHS), in the MST only
[1]
  Kd: 24.8 ± 13 nM
[2]
  Kd: 20.1 ± 9.1 nM
